In patent US20100189695A1, “IRAK-1 AS REGULATOR OF DISEASES AND DISORDERS” (priority 2008, published 2010) one finds NFAT-luciferase reporter activity in Hela cells data, which are given here for 1 substance.

This test concerns the target NFAT (in Hela cells) (human). The test can be described thus: cell-based or functional assay.

Substance “Flag tagged full length wild type human IRAK-1 (pFlag-IRAK-1)” displayed an NFAT-luciferase reporter activity in Hela cells of 80 % reduction.
